One block for each sequence: values may come before it.
Tests used:
HLA-B*51:01 [1] = test: IEDB peptide-MHC binding, purified MHC/competitive/radioactivity; filed as Kd, often an IC50 or EC50 that approximates it; ≥ and ≤ were set here for values at or beyond the usual limits of such assays
HLA-B*54:01 = test: as above
HLA-B*53:01 = test: as above
HLA-B*35:01 = test: as above
HLA-B*07:02 = test: as above
HLA-A*68:01 = test: as above
HLA-A*11:01 = test: as above
HLA-A*03:01 = test: as above
HLA-A*33:01 = test: as above
HLA-A*31:01 = test: as above
HLA-B*48:01 = test: IEDB peptide-MHC binding, purified MHC/direct/fluorescence; filed as Kd, often an IC50 or EC50 that approximates it; ≥ and ≤ were set here for values at or beyond the usual limits of such assays
HLA-A*02:06 = test: IEDB peptide-MHC binding, purified MHC/competitive/radioactivity; filed as Kd, often an IC50 or EC50 that approximates it; ≥ and ≤ were set here for values at or beyond the usual limits of such assays
HLA-B*51:01 [2] = test: IEDB peptide-MHC binding, purified MHC/competitive/fluorescence; filed as Kd, often an IC50 or EC50 that approximates it; ≥ and ≤ were set here for values at or beyond the usual limits of such assays; details: source organism: Homo sapiens
HLA-B*46:01 = test: as above; details: source organism: Homo sapiens
HLA-A*26:01 = test: as above; details: source organism: Homo sapiens
HLA-B*27:03 = test: as above; details: source organism: Homo sapiens
HLA-B*57:01 = test: as above; details: source organism: Homo sapiens
HLA-B*18:01 = test: as above; details: source organism: Homo sapiens
HLA-A*69:01 = test: as above; details: source organism: Homo sapiens
HLA-A*02:01 [3] = test: IEDB peptide-MHC binding, purified MHC/direct/fluorescence; filed as Kd, often an IC50 or EC50 that approximates it; ≥ and ≤ were set here for values at or beyond the usual limits of such assays; details: source organism: Rattus norvegicus
HLA-A*02:02 = test: IEDB peptide-MHC binding, purified MHC/competitive/radioactivity; filed as Kd, often an IC50 or EC50 that approximates it; ≥ and ≤ were set here for values at or beyond the usual limits of such assays; details: source organism: Vaccinia virus WR
HLA-A*02:03 = test: as above; details: source organism: Vaccinia virus WR
HLA-A*68:02 = test: as above; details: source organism: Vaccinia virus WR
HLA-B*15:01 = test: IEDB peptide-MHC binding, purified MHC/competitive/fluorescence; filed as Kd, often an IC50 or EC50 that approximates it; ≥ and ≤ were set here for values at or beyond the usual limits of such assays; details: source organism: Homo sapiens
HLA-A*02:01 [4] = test: IEDB peptide-MHC binding, purified MHC/competitive/radioactivity; filed as Kd, often an IC50 or EC50 that approximates it; ≥ and ≤ were set here for values at or beyond the usual limits of such assays; details: source organism: Vaccinia virus WR
[5] = source organism: SARS coronavirus Tor2
[6] = source organism: Mammarenavirus guanaritoense
[7] = source organism: Vaccinia virus Copenhagen
[8] = source organism: Triticum aestivum
[9] = source organism: Vaccinia virus WR
[10] = source organism: Mammarenavirus machupoense

Sequence: APAHVSTIGV
Kd (HLA-B*51:01 [1]; [5]): 12.5 µM
Kd (HLA-B*54:01; [5]): 3.11 µM
Kd (HLA-B*53:01; [5]): 17 µM
Kd (HLA-B*35:01; [5]): 10.5 µM
Kd (HLA-B*07:02; [5]): 0.0344 µM

Sequence: CPMCCSKIL
Kd (HLA-B*51:01 [1]; [6]): 0.182 µM
Kd (HLA-B*54:01; [6]): 0.155 µM
Kd (HLA-B*53:01; [6]): 0.0629 µM
Kd (HLA-B*35:01; [6]): 0.018 µM
Kd (HLA-B*07:02; [6]): 0.0217 µM

Sequence: FILGIIITV
Kd (HLA-B*51:01 [1]; [7]): ≥ 68.4 µM
Kd (HLA-A*68:01; [7]): 3.21 µM
Kd (HLA-B*54:01; [7]): 3.34 µM
Kd (HLA-B*53:01; [7]): 5.54 µM
Kd (HLA-A*11:01; [7]): 19.6 µM
Kd (HLA-A*03:01; [7]): 1.5 µM
Kd (HLA-B*35:01; [7]): ≥ 39.6 µM
Kd (HLA-B*07:02; [7]): ≥ 32.7 µM
Kd (HLA-A*33:01; [7]): 4.51 µM
Kd (HLA-A*31:01; [7]): 1.17 µM

Kd (HLA-B*51:01 [1]; [8]): 0.246 µM
Kd (HLA-B*54:01; [8]): ≥ 32.4 µM
Kd (HLA-B*53:01; [8]): 0.519 µM
Kd (HLA-B*35:01; [8]): 0.519 µM
Kd (HLA-B*07:02; [8]): 0.0146 µM
Sequence: IPEQSRCQAI

Sequence: KPAMSTYSDI
Kd (HLA-B*51:01 [1]; [9]): 14 µM
Kd (HLA-B*54:01; [9]): 9.87 µM
Kd (HLA-B*53:01; [9]): 8.83 µM
Kd (HLA-B*35:01; [9]): ≥ 63.7 µM
Kd (HLA-B*07:02; [9]): 0.161 µM

Sequence: KPDGSDSMDV
Kd (HLA-B*51:01 [1]; [9]): ≥ 69.6 µM
Kd (HLA-B*54:01; [9]): ≥ 69.9 µM
Kd (HLA-B*53:01; [9]): ≥ 69.9 µM
Kd (HLA-B*35:01; [9]): ≥ 69.9 µM
Kd (HLA-B*07:02; [9]): 0.244 µM

Sequence: KPDHDGNTPL
Kd (HLA-B*51:01 [1]; [9]): ≥ 69.6 µM
Kd (HLA-B*54:01; [9]): ≥ 41 µM
Kd (HLA-B*53:01; [9]): 7.08 µM
Kd (HLA-B*35:01; [9]): 3.28 µM
Kd (HLA-B*07:02; [9]): 0.031 µM

Sequence: KPKPAVRYAI
Kd (HLA-B*51:01 [1]; source organism: Variola virus): ≥ 69.6 µM
Kd (HLA-B*54:01; source organism: Variola virus): 12.5 µM
Kd (HLA-B*53:01; source organism: Variola virus): ≥ 69.9 µM
Kd (HLA-B*35:01; source organism: Variola virus): ≥ 69.9 µM
Kd (HLA-B*07:02; source organism: Variola virus): 0.00472 µM

Sequence: KQIAEHATI
Kd (HLA-B*48:01; source organism: Bacillus thuringiensis): 0.351 µM

Sequence: KQLGQVMLL
Kd (HLA-A*02:06; source organism: Dengue virus 2 Jamaica/1409/1983): 0.00517 µM
Kd (HLA-B*48:01; source organism: dengue virus type 2): 0.0062 µM

Kd (HLA-B*51:01 [2]): ≥ 20 µM
Kd (HLA-B*46:01): ≥ 20 µM
Kd (HLA-A*26:01): ≥ 20 µM
Kd (HLA-B*27:03): ≥ 20 µM
Kd (HLA-B*57:01): ≥ 20 µM
Kd (HLA-B*18:01): ≥ 20 µM
Kd (HLA-A*69:01): ≥ 20 µM
Kd (HLA-A*02:01 [3]): 0.0048 µM
Sequence: KQMEDGHTL

Sequence: LMIFISSFLL
Kd (HLA-B*51:01 [1]; [9]): 1.6 µM
Kd (HLA-A*02:02): 0.00293 µM
Kd (HLA-A*02:03): 0.0801 µM
Kd (HLA-A*68:01; [9]): 0.283 µM
Kd (HLA-A*02:06; [9]): 0.0764 µM
Kd (HLA-B*54:01; [9]): 3.24 µM
Kd (HLA-B*53:01; [9]): 0.971 µM
Kd (HLA-A*11:01; [9]): 1.21 µM
Kd (HLA-A*03:01; [9]): 0.42 µM
Kd (HLA-B*35:01; [9]): ≥ 20.9 µM
Kd (HLA-B*07:02; [9]): ≥ 27.2 µM
Kd (HLA-A*33:01; [9]): 0.707 µM
Kd (HLA-A*68:02): 0.0733 µM
Kd (HLA-A*31:01; [9]): 0.284 µM

Sequence: LPNVDLTTM
Kd (HLA-B*51:01 [1]; [9]): 0.0622 µM
Kd (HLA-B*54:01; [9]): 0.717 µM
Kd (HLA-B*53:01; [9]): 0.000222 µM
Kd (HLA-B*35:01; [9]): 0.000159 µM
Kd (HLA-B*07:02; [9]): 0.0549 µM

Kd (HLA-B*51:01 [2]): ≥ 20 µM
Kd (HLA-A*26:01): ≥ 20 µM
Kd (HLA-B*15:01): ≥ 20 µM
Kd (HLA-A*69:01): ≥ 20 µM
Sequence: LVKSAWLSL

Sequence: NPDQNTFPNI
Kd (HLA-B*51:01 [1]; [9]): ≥ 33.6 µM
Kd (HLA-B*54:01; [9]): ≥ 69.9 µM
Kd (HLA-B*53:01; [9]): 3.74 µM
Kd (HLA-B*35:01; [9]): ≥ 69.9 µM
Kd (HLA-B*07:02; [9]): ≥ 69.6 µM

Sequence: NPIQLSSYSL
Kd (HLA-B*51:01 [1]; [5]): 0.246 µM
Kd (HLA-B*54:01; [5]): 1.77 µM
Kd (HLA-B*53:01; [5]): 0.531 µM
Kd (HLA-B*35:01; [5]): 0.395 µM
Kd (HLA-B*07:02; [5]): 0.416 µM

Kd (HLA-B*51:01 [1]; [8]): 0.101 µM
Kd (HLA-B*54:01; [8]): 11 µM
Kd (HLA-B*53:01; [8]): 0.478 µM
Kd (HLA-B*35:01; [8]): 0.00619 µM
Kd (HLA-B*07:02; [8]): 0.149 µM
Sequence: QPYLQLQPF

Sequence: RPPLNRNYV
Kd (HLA-B*51:01 [1]; [5]): 10.3 µM
Kd (HLA-B*54:01; [5]): 0.661 µM
Kd (HLA-B*53:01; [5]): ≥ 78.2 µM
Kd (HLA-B*35:01; [5]): ≥ 21.4 µM
Kd (HLA-B*07:02; [5]): 0.061 µM

Sequence: SFSLESDSIK
Kd (HLA-B*51:01 [1]; [9]): ≥ 69.6 µM
Kd (HLA-A*02:02): ≥ 70 µM
Kd (HLA-A*02:03): ≥ 70.4 µM
Kd (HLA-A*68:01; [9]): 7.76 µM
Kd (HLA-A*02:01 [4]): ≥ 69.4 µM
Kd (HLA-A*02:06; [9]): ≥ 59.7 µM
Kd (HLA-B*54:01; [9]): ≥ 69.9 µM
Kd (HLA-B*53:01; [9]): ≥ 69.9 µM
Kd (HLA-A*11:01; [9]): 5.91 µM
Kd (HLA-A*03:01; [9]): ≥ 22 µM
Kd (HLA-B*35:01; [9]): ≥ 69.9 µM
Kd (HLA-B*07:02; [9]): ≥ 69.6 µM
Kd (HLA-A*33:01; [9]): ≥ 70 µM
Kd (HLA-A*68:02): ≥ 69.8 µM
Kd (HLA-A*31:01; [9]): 2.66 µM

Sequence: SPAHLINKLL
Kd (HLA-B*51:01 [1]; [9]): 5.34 µM
Kd (HLA-B*54:01; [9]): 2.96 µM
Kd (HLA-B*53:01; [9]): 6.85 µM
Kd (HLA-B*35:01; [9]): ≥ 51 µM
Kd (HLA-B*07:02; [9]): 0.0266 µM

Sequence: SPGEIKPKF
Kd (HLA-B*51:01 [1]; [9]): ≥ 70.2 µM
Kd (HLA-B*54:01; [9]): ≥ 51.1 µM
Kd (HLA-B*53:01; [9]): 0.174 µM
Kd (HLA-B*35:01; [9]): 8.55 µM
Kd (HLA-B*07:02; [9]): 0.0797 µM

Sequence: SRLLMRRMR
Kd (HLA-B*48:01; source organism: Yellow fever virus): ≥ 20 µM

Sequence: TFFSYLMKDK
Kd (HLA-B*51:01 [1]; [9]): ≥ 69.6 µM
Kd (HLA-A*02:02): ≥ 50.3 µM
Kd (HLA-A*02:03): ≥ 70.4 µM
Kd (HLA-A*68:01; [9]): 0.0959 µM
Kd (HLA-A*02:01 [4]): ≥ 69.4 µM
Kd (HLA-A*02:06; [9]): ≥ 69.8 µM
Kd (HLA-B*54:01; [9]): ≥ 69.9 µM
Kd (HLA-B*53:01; [9]): ≥ 24.2 µM
Kd (HLA-A*11:01; [9]): 0.0128 µM
Kd (HLA-A*03:01; [9]): 1.6 µM
Kd (HLA-B*35:01; [9]): ≥ 69.9 µM
Kd (HLA-B*07:02; [9]): 16.2 µM
Kd (HLA-A*33:01; [9]): 2.69 µM
Kd (HLA-A*68:02): ≥ 69.8 µM
Kd (HLA-A*31:01; [9]): 0.56 µM

Sequence: VPINVAEAY
Kd (HLA-B*51:01 [1]; [10]): ≥ 57 µM
Kd (HLA-B*54:01; [10]): ≥ 50.5 µM
Kd (HLA-B*53:01; [10]): 0.202 µM
Kd (HLA-B*35:01; [10]): 0.00628 µM
Kd (HLA-B*07:02; [10]): 13.7 µM

Sequence: VPTNDHIPVV
Kd (HLA-B*51:01 [1]; [9]): 0.0509 µM
Kd (HLA-B*54:01; [9]): 0.000661 µM
Kd (HLA-B*53:01; [9]): 12 µM
Kd (HLA-B*35:01; [9]): 10.6 µM
Kd (HLA-B*07:02; [9]): 0.17 µM

From the Immune Epitope Database (IEDB)
